Experimental data taken from US20080102477.

Molecular target: T1, BubR1 (amino acids 1-514) GST-fusion protein, O60566
T1 chain: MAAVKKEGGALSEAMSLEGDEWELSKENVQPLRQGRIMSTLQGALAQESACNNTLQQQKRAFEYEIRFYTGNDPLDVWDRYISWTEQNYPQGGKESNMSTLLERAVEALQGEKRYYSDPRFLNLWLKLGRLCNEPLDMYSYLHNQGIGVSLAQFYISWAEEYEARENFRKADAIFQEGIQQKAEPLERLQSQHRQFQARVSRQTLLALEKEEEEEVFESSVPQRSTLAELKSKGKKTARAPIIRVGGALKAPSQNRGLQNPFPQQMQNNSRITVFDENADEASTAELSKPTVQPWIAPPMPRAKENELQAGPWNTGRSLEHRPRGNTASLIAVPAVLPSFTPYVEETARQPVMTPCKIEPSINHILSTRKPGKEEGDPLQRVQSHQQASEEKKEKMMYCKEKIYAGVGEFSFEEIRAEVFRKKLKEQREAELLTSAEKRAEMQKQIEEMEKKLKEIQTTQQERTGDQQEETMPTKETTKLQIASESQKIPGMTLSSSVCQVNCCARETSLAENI

B1: PCAF (amino acids 352-832) GST-fusion protein (protein)
chain: MLEEEVYSQNSPIWDQDFLSASSRTSQLGIQTVINPPPVAGTISYNSTSSSLEQPNAGSSSPACKASSGLEANPGEKRKMTDSHVLEEAKKPRVMGDIPMELINEVMSTITDPAAMLGPETNFLSAHSARDEAARLEERRGVIEFHVVGNSLNQKPNKKILMWLVGLQNVFSHQLPRMPKEYITRLVFDPKHKTLALIKDGRVIGGICFRMFPSQGFTEIVFCAVTSNEQVKGYGTHLMNHLKEYHIKHDILNFLTYADEYAIGYFKKQGFSKEIKIPKTKYVGYIKDYEGATLMGCELNPRIPYTEFSVIIKKQKEIIKKLIERKQAQIRKVYPGLSCFKDGVRQIPIESIPGIRETGWKPSGKEKSKEPRDPDQLYSTLKSILQQVKSHQSAWPFMEPVKRTEAPGYYEVIRFPMDLKTMSERLKNRYYVSKKLFMADLQRVFTNCKEYNPPESEYYKCANILEKFFFSKIKEAGLIDK
  in vitro acetylation assay (Western blot with anti-acetyl lysine antibodies; MALDI-MS and MS/MS of pepsin peptides): the appearance of a 42 Da acetylation peak in the presence of active PCAF (PCAF 352-832) confirmed that lysine 250 (K250) is the acetylation site of BubR1
